Data from the supplement of paper PMC9732359.
± gives the uncertainty stated by the source.

Assay: protein stability index of a GFP-peptide fusion (yeast GPS) (PSI 1-4); higher = more stable; sorted into four equal gates, so the index is relative within each strain
Summary of the method: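 The protein stability index of a peptide was calculated by multiplying its read frequency in each gate by that gate's number and adding the products. The peptides were tiled 17-residue stretches of yeast proteins, fused downstream of GFP on a Cherry-expressing plasmid and carried in yeast as a pooled library. Mid-log cultures in leucine-free medium were sorted into four equal gates by GFP/Cherry ratio, and each gate's plasmids were PCR-amplified and Illumina-sequenced.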

Sequence	protein stability index (doa10∆)	protein stability index (pdr5∆)	protein stability index (san1∆)	protein stability index (ubr1∆)
AHMGVLLVLLQDVIKVL [SWP82]	1.51 ± 0.068	1.58 ± 0.084	1.45 ± 0.1	1.51 ± 0.057
AHNPELERYVKRCMDDL [RPO31]	3.33 ± 0.062	3.45 ± 0.062	3.41 ± 0.037	3.35 ± 0.04
AHTAGRYANKRFRKAQC [RPS5]	2.29 ± 0.22	2.92 ± 0.18		
AIATTVIAHLTVEALDF [RET1]	2.54 ± 0.12	2.32 ± 0.083	2.71 ± 0.076	2.37 ± 0.053
AIEPETFTQLVSSSLYE [PUP3]	2.35 ± 0.063	2.89 ± 0.068	2.75 ± 0.063	2.54 ± 0.043
AIFNNEFDSDDDDISDD [RPN4]	3.12 ± 0.1	2.16 ± 0.19		3.19 ± 0.21
AIIDKNTGLTFKKNLQV [PRE4]	3.22 ± 0.081	2.79 ± 0.076	2.79 ± 0.11	3.35 ± 0.082
AIKWDGSSGGVIRMVVL [PRE3]	2.56 ± 0.084	1.92 ± 0.071	2.71 ± 0.1	1.75 ± 0.049
AIKYGYEDSGSTYKHDR [SRB4]	3.22 ± 0.17		3.43 ± 0.14	3.15 ± 0.14
AIKYRPTSVKLLKTTVP [POP3]	2.23 ± 0.037	2.3 ± 0.039	2.31 ± 0.057	2.14 ± 0.033
AIVCYILFELYKIKGRN [SRP72]	2.01 ± 0.056	2.13 ± 0.059	2.69 ± 0.059	2.15 ± 0.054
AKAKAVTSKVRNAEFKV [YMR153W/NUP53]	1.38 ± 0.15	1.67 ± 0.13		1.3 ± 0.13
AKLPGHKSLIRSISWAP [YGL100W/SEH1]	2.74 ± 0.07	2.3 ± 0.058	2.2 ± 0.11	2.54 ± 0.055
AKMNAKTDFAKIINKPN [RPC82]	1.8 ± 0.069	1.79 ± 0.092	1.58 ± 0.17	1.62 ± 0.069
AKNSIIDSSNLPLQAQQ [SWI1]	2.73 ± 0.069	2.94 ± 0.071	2.74 ± 0.099	2.78 ± 0.042
AKRLIHGTSTSAEDEEN [CDC53]	2.84 ± 0.14	2.44 ± 0.26		3.57 ± 0.19
AKSLLKLQLGQLYESGN [COR1]	2.97 ± 0.12	3.27 ± 0.13	2.99 ± 0.1	3.01 ± 0.087
AKVVVTTSRFSKQVTDY [FAS2]	3.08 ± 0.084	2.71 ± 0.082	3.12 ± 0.055	3.15 ± 0.058
AKYETSILEHSGIRLIE [FAS2]	3.32 ± 0.062	3.3 ± 0.063	3.09 ± 0.051	3.37 ± 0.052
ALAGGKKSKKKWSKKSM [RPS25A]	3.45 ± 0.12	3.42 ± 0.17	3.23 ± 0.16	3.63 ± 0.09
ALAGSEINWRHASFLCS [FAS1]	1.77 ± 0.071	1.6 ± 0.057	1.43 ± 0.092	1.84 ± 0.049
ALAYAGTGNNSAVKRLL [RPN2]	2.68 ± 0.1	2.71 ± 0.1	2.28 ± 0.14	3.26 ± 0.1
ALEEGLNEEAVIFLSSL [YJL039C/NUP192]	3.28 ± 0.1	3.05 ± 0.062	3 ± 0.07	2.99 ± 0.065
ALETENMEIRNLRLKIL [GRR1]	3.14 ± 0.065	2.9 ± 0.043	2.82 ± 0.052	2.7 ± 0.03
ALGIKVTNPKGRLALEA [RPL32]		3.37 ± 0.18	2.87 ± 0.23	3.36 ± 0.19

Sequence	protein stability index (doa10∆)	protein stability index (pdr5∆)	protein stability index (san1∆)	protein stability index (ubr1∆)
ALIENKKAKLVLIANDV [RPL8A]	2.76 ± 0.1	2.51 ± 0.093	2.56 ± 0.12	2.46 ± 0.12
ALKRSYGIFGEGVEYSF [POP8]	2.45 ± 0.092	2.71 ± 0.052	2.46 ± 0.097	2.86 ± 0.051
ALKTSIQHVGMINGRKL [FAS1]	3.21 ± 0.12	3.21 ± 0.1	3.25 ± 0.067	3.19 ± 0.083
ALLQRLKTNGKQNNKDF [MTW1]	2.97 ± 0.1	3.33 ± 0.14	3.04 ± 0.13	2.28 ± 0.091
ALMKEKDIRSTLASLIR [RPC82]	3.2 ± 0.27	2.85 ± 0.21	2.43 ± 0.24	3.13 ± 0.12
ALQDKEITSVLSNLHES [SNF12]	2.93 ± 0.083	3.43 ± 0.13	2.94 ± 0.064	3.13 ± 0.056
ALQQQQQQQQNQQQQNQ [SWI1]	2.77 ± 0.062	2.97 ± 0.068	2.75 ± 0.047	2.78 ± 0.079
ALRPSDIFGANAASGSN [YOR098C/NUP1]	2.67 ± 0.057	1.99 ± 0.044	2.22 ± 0.062	2.52 ± 0.059
ALSKFLTHPKYLNSRII [YML103C/NUP188]	1.16 ± 0.057	1.32 ± 0.077	1.38 ± 0.093	1.58 ± 0.066
ALSMGKSSAFVIDIGAS [ARP7]	1.47 ± 0.043	1.95 ± 0.069	1.62 ± 0.092	2.1 ± 0.059
ALVKPETQFKLSRPYKA [CDC53]	2.41 ± 0.068	2.64 ± 0.059	2.59 ± 0.059	2.34 ± 0.063
AMDLAQMLIQGVWDVDN [BRR2]	2.85 ± 0.064	2.78 ± 0.067	2.18 ± 0.058	2.12 ± 0.052
AMDRAHRIGQKKQVHVY [ISW2]	2.71 ± 0.095	2.75 ± 0.078	2.84 ± 0.085	2.66 ± 0.074
AMEKYLLSKSKIGEEDY [MTW1]	2.35 ± 0.085	2.73 ± 0.083	2.6 ± 0.1	2.73 ± 0.042
AMFAALQQKQQQRFQAL [SWI1]	1.36 ± 0.051	1.62 ± 0.053	1.3 ± 0.12	1.62 ± 0.038
AMLAAQDVAAKCKEVGI [RPS14B]	2.36 ± 0.061	2.36 ± 0.065	1.99 ± 0.073	1.96 ± 0.044
AMNDACYEKVLESINEG [BRR2]	3.15 ± 0.12	2.82 ± 0.17	2.91 ± 0.095	3.37 ± 0.2
ANARDFGEWAGMTKSNI [BRR2]	2.28 ± 0.12	2.82 ± 0.14	1.55 ± 0.12	2.37 ± 0.079
ANGTFMDFGVDPSMDPE [RPN10]	2.87 ± 0.12	3.05 ± 0.091	2.65 ± 0.12	2.87 ± 0.085
ANIQLDFPELKPYKQVK [FAS2]	3.16 ± 0.1	2.85 ± 0.094	2.97 ± 0.11	3.17 ± 0.077
ANKEKKKAEKAARKAEK [RPL24A]	3.27 ± 0.059	3.33 ± 0.065	3.38 ± 0.036	3.48 ± 0.055
ANKLSKSHSTVSSSSRH [ISW2]	2.9 ± 0.066	2.63 ± 0.069	2.71 ± 0.056	2.93 ± 0.037
ANLVNKESDLLEETRTT [BRN1]	3.06 ± 0.18	3.51 ± 0.17	3.31 ± 0.098	3.26 ± 0.077
ANNASQITPTVPHSHPS [SNF12]	2.77 ± 0.053	3 ± 0.064	2.82 ± 0.052	2.9 ± 0.052
ANPVVATDPVAAKPDNL [SWP82]	3.26 ± 0.087	3.15 ± 0.097	3.23 ± 0.085	3.1 ± 0.05
